Reference: patent US20260241035A1, “FUNCTIONAL NUCLEIC ACID MOLECULE AND METHOD” (THE UNIVERSITY COURT OF THE UNIVERSITY OF EDINBURGH, priority 2022, published 2026)

System: GSC7 cells
Assay: Nano-Glo Dual-Luciferase Reporter (Nanoglo DLR) assay of enhancer activity, fold change to mCMV
Format: cell-based, human
Conditions: expression fold change of the individual enhancer compared to mCMV
In short: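 160 bp enhancer fragments in NanoLuc reporter plasmids were co-transfected 1:10 with PGK-firefly luciferase into GSC7 cells using Lipofectamine LTX/Plus and read two days later. NanoLuc signal was normalised to firefly, then expressed as fold change to the empty mCMV vector.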

B1: ID1101: enhancer fragment, SEQ ID NO: 4 (nucleic acid)
DNA: GTGAGTGTGACTCACATGCTGGCATCAGAGCCCCTCTTAGAGCTTAGAACACTGGGCCTCTGTCAGGCAAAGAAAAGGAGTCCCTATGAATAGCCATCTCCACAAATAGCAGTTACTGTCACTTCTTAAAAGACACAAGCATGGCTGGAGACCGGCACTG
- Fold change (Median): 258.8 fold
